Assay [1] deals with Hcp2 of enteroaggregative E. coli (second T6SS gene cluster), wild type (enteroaggregative E. coli 17-2). Description: SEC-MALS; SEC/MALS/UV/RI on KW803 and KW804 columns (Shodex), Tris-HCl 20 mM pH 7.5, NaCl 100 mM, 0.5 ml/min; monomers in the hexamer. (In general: SEC sorts molecules by how far they enter the pores of the column.)
In assay [2] the target is Hcp1 (hemolysin co-regulated protein 1) of the Sci-1 T6SS of enteroaggregative E. coli, wild type (enteroaggregative E. coli 17-2). Kind of assay: SPR; BIAcore T200, 25°C; Hcp1 immobilised by amine coupling (CM5 chip in the results, HC200m Xantech chip in the methods), Hcp1 3.75-120 µM as analyte in HBS-EP; steady state, 1:1 equilibrium model; hexamer with hexamer; Hcp1WW tested in the same conditions. On the technique in general: Surface plasmon resonance follows binding to a sensor surface in real time, without labels.

The target is the same in assay [3]. Description: SEC-MALS; SEC/MALS/UV/RI on KW803 and KW804 columns (Shodex), Tris-HCl 20 mM pH 7.5, NaCl 100 mM, 0.5 ml/min; monomers in the hexamer.
The target of assay [4] is Hcp1 N93W/S158W double mutant (Hcp1WW) (enteroaggregative E. coli 17-2). Description: SEC-MALS; MALLS-SEC-UV of Hcp1WW, data not shown; monomers in the hexamer.

For “Hcp2 of enteroaggregative E. coli (second T6SS gene cluster), wild type (natural protein)”, in assay [1], the stoichiometry N worked out at 6.
“Hcp1 (hemolysin co-regulated protein 1) of the Sci-1 T6SS of enteroaggregative E. coli, wild type (natural protein)” gave a Kd in assay [2] of 7.2 µM. In assay [3], this substance came in with a stoichiometry N of 6.
In assay [4], “Hcp1 N93W/S158W double mutant (Hcp1WW) (natural protein)” returned a stoichiometry N of 6.

The term stoichiometry N denotes the number of molecules, sites or subunits per partner or assembly. As usually defined, the Kd is the concentration at which binding is half-saturated. Read a low Kd as a tighter complex.

The record behind these values is article PMC3925092.
